# From the nanobody polyreactivity screen of Harvey et al. (2022)
# Assay: yeast display, Sf9 membrane polyspecificity reagent, FACS + sequencing; frameworks hold sequencing errors
# Summary of the method: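 After 36–48 hours of galactose induction, yeast (Saccharomyces cerevisiae BJ5465) displaying a synthetic nanobody library were stained at 4 °C for 1 hour with 10% biotinylated, detergent-solubilized Sf9 membrane reagent. Streptavidin microbeads enriched the stained cells before FACS sorting into low and high (top ~1%) gates on anti-HA and streptavidin fluorescence. Each clone's polyreactivity label reflects its gate of origin.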
row,Sequence,polyreactivity (PSR sort gate)
1,QLHLQESGGLVQAGGLRLSCAASGSVSYQEAMGWYRQAPGKERELVATISFGANTNYADSVKGRFTISRDNAKNTVYLQMNSLKPEDTAVYYCAAESLFDDYYGYWGQGTQVTVSS,low polyreactivity
2,QVQLVESGGGLVQAGGSLRLSCAASGFTFGRTVRGWYRQAPGKERELVAAISSSGGSTYYADSVKGRFTISRDNAKNTVYLQMNSLKPEDTAVYYCAAVLVSWYRNPQYDYWGQGTQVTVSS,high polyreactivity
3,QVQLVESGGGLVQAGGSLRLSCAASGFIFAYNAMGWYRQAPGKERELVAAISWSGGSTYYADSVKGRFTISRDNAKNTVYLQLNSLKPEDTAVYYCNKYIRYPFKRYGYWGQGTQVTVSS,high polyreactivity
4,LVQVVESGGGLVQAGCSLRLSCAASGRTFGVYAMGWYRQAPGKEWELVASISRSGGSTYYADSLKGRFTISRDNAKNTVYLQMNSLIPEDTAVYYCAAVYKRGMDYWGQGTQVTVSS,high polyreactivity
5,QDHLVESGGGLVQAGGSLRLSCAASGFIFRGNAMGWYRQPPGKERELVAAISRRGGTTYYADCVKGRFTISRDNAKNTDYLQMNSLKPEDTAVYYCAAYSPLSSGMDSWGQGTQVTVSS,high polyreactivity
6,QVQLVESGGGLVQAGGSLRLSCAGSGRIFQRNDMGWYRQAPGKARELVAGITGCGGRTYYADSVKGRFTISRDNEKNTVYLQMNSLKPEDTAVYYCAAALWSSRGRVLSRRDYWGQGTQVTVSS,high polyreactivity
7,QVQLVESGGGLVQAGGSLPLSSAASGFTFYRNAMGWYRQVPGKERELVAAITTRGVTTYYADSVKGRFTIARDYAKNTVYVLMNCLKPVDTAVYYFAAKKSLIGDYWGQGTQVTVSS,high polyreactivity
8,QVQLVESGGGLVQAGGSLRLSCAASGRTFSYSAMGWYRQAPGKERELVAAISSGGSTNYADSVKGRFTISRDNAKNTVYLQMNSLKPEDTAVYYCATSSIWGSGRVRWVTYYYWGQGTQVTVSS,low polyreactivity
9,QVQLVESGGGLVQAGGSLRLSCAASGFTFKFYAMGWYRQAPGKEMEFVAAISGSGGSTYYADSVKRRFTISRDNAKNTVYLQMNSLKPEDTAVYYCAAEVPGKPYRRSRYSFRHDYWGQGTQVTVSS,low polyreactivity
10,QVQLVESGGCLVQAGGSLRFSCAASGSTFHRYVMGWYRQAPGKERELVAVINSTGGSTYYADSVKGRYTISRDNAKNTVYLQMNSLKPEDTAVYYCARVTRRGPGYTTLYSRYDYWGQGTQVNVSS,low polyreactivity
11,QVQLEESGGGLVQAGGSLRLSCAASGIIFSYYDMGRYRQAPGKERELVATITRKGGSTYYADTVKGRFTISRDYAKNTVYFQMNSLKPEDTAVYYCAAQTTVYIYDYWGQGSQVTVSS,low polyreactivity
12,QVQLVESGGGLVQAGGSLRLSCAASGLTFDGNTMGWYRQAPGKERELVAAISFDGGNTYADSVKGRFTISRDNAKNTVYLQMISLKPEDTAVYYDYWGQGNQVTVSS,low polyreactivity
13,QVQLVESGGGLVQAGGSLRLSCAASGFTFHRYAMGWYRQAPGKERELVAAISSRGGSTYYADSVKGRFTISRDNAKNTVYLQMNSLKPEDTAVYYCAARWPHRYYSSYYGYDYWGQGTQVTVSS,high polyreactivity
14,QVQLVESGGGLVQAGGSLRLSCAASGIILAFNAMGWYRQAPGKEREFVASISQGGSSTYYADSVKGRFTISRDYAKNTVYLQMNSLKPEVTAVYFCAARSSRVRSPYQRYYYWGQGTQVTVSS,high polyreactivity
15,QLQLVESGGGLVQAGGSLRLSCAASGSIFADYAMGWYRQAPGKEREFVAAITRSGTSTYYADSVKGRFTISRDNAKNTVYFQMNSLKPEDTAGYYCAKTEVLLYLYTLDYWGQGTQVTVSS,low polyreactivity
16,QVQLVESGGGLVQAGGSLRLSCAASGSTFSYNAMGWYRQAPGKERELVAAISFISGSTYYADSVKGRFTISRDNAKNTVYLQMNSLKPEDTAVYYCNAGRTRRRDYYWQYDYWGQGTQVTVSS,high polyreactivity
17,QVQLVDSGGGLVQAGGSLRLSCAASGRTFYTYAMGWYRVAPGKEWELVAAITGGGSTTYADSVKGRFTISRDNAKNTVYLQMNSLKPEDTEVYYCAALIYGPERVVDEYDYWGQGTQVTVSS,low polyreactivity
18,QVQHVESGGGLVQAGGSLPLSGAASGLTFTRYAMGWYRQAPGKESELVAAISKNGGSTYYADSVTGRFTISRDNAKYTVYLQMNSLKPEDTAVYYCAARRSTSYPAGYDYWVQGTQVTVSS,high polyreactivity
19,QVQLVETGVGLVQAGGSLRLSCAASGRIFLVYAMGWYRQAPGKERELVAAISWRGGRTYYADSVKGRFTISRDNAKNTVYLQMNSLIPEDTAVYYCAAASKYSQFEYDYWGQGTQVTVSS,high polyreactivity
20,QVQLVESGGGLVQAGGSLRLSCAASGLIFQVYDMGWYRQAPGKERELVAAISSGSNTNYADSVKGRFTISRDNAKNTVYLQMNSLKPEDTAVYYCAAGLYLQGPFDYWGQGTQVTVSS,low polyreactivity
21,QVQLVESGGGLVQAGGSLRLSCAASGRIFYFYALGWYRQAPGKERELVAAIDSGGSTYYADSVKGRFTISRDNAKNTVYLQMNSLKPEDTAVYYCNADGFYSWLYDYWGQGTQVTVSS,low polyreactivity

row,Sequence,polyreactivity (PSR sort gate)
1,QVQLVESGGGLVQAGGSLRLSCAASGITFYIYAMGWYRQAPGKERELVATISWSDGRTYYADSVKGRFTISRDNAKNTVYCQMNSLKPEDTAVYYCAADWWYYQFDYEYWGQGTQVTVSS,low polyreactivity
2,QVQLVESGGGLVQAGGSLRLSCAASGSIFVGYAMGWYRQAPGKERELVASITTPGGSTHYADSVKGRFTISRDNAKNTVYLQMNSLKPEDTAVYYCAADSLSNGVLQYLPGYDYWGQGTQVTVSS,low polyreactivity
3,QVQLLDAGGGLDQAGGSLRLRCAASGSIFRYYPMGWYRQAPGKQREMVASISWSGTSTYYADSVKGRFTISRDNAKNTVYLPRNSLKPEDTAVYYCNKDRWGRYYTRYDYWGQGTQVTVSS,high polyreactivity
4,QVQLVESGGGLVQAGGSLRLSCAASGRIFYYNTMGWYRQAPGKERELVAAISYRGGSTYYADSVKGRFTISRDNAKNTVYLQMNSLKTEDTAVYYCAAPVRQSSYTRYDSWGQGTQVTVSS,high polyreactivity
5,QVQHVESGGGLVQAGGSLRLSCAASGRTFPLNAMGWYRQAPGKERELVYAITWSGGRTYYADSVKGRFTISRDYAKNTVYLQMNSLKPEDTAVYYCAAKRTTWKIQSGYDYWGQGTQVTVSS,low polyreactivity
6,QVQLVESGGGLVQAGGSLRLSCAASGRTFDYNAMGWYRQAPGKEREMVAAISSSGGSTYYADSVKGRFTISRDNAKNTVYLQMNSLKPEDTAVYYCATLYPRISIYYYWGQGTQVTVSS,high polyreactivity
7,QVQLVESGGGLVQAGGSLRLSCAASGSIFIWNAMGWYRQAPGKERELVAAISFSGGSTYYADSVKGRFTISRDNAKNTVYLQMNSLKPEDTAVYYCAADSFSGRYYWWEYDYWGQGTQVTVSS,low polyreactivity
8,QVQLVESGGGLVQAGGSLRLSCAASGSTFGPNTMGWYRQAPGKERELVAAINLRGGRTYYADSVKGRFTISRDNAKNTVYLQMNSLKPEDTAVYYCAARFKTTGYDYWGQGTQVTVSS,high polyreactivity
9,QVQLVESGGGLVQAGGSLRLSCAASGRIFYPYAMGWYRQAPGKESEFVAAIRWSSGSTYYADSVKGRFTISRDNAKNTVYLQMNSLKPEDTAVYYCAAEGYDSYSYDYWGQGTQVTVSS,high polyreactivity
10,QVQLVESGGGLVQAGGSLRLSCAASGLTFGRYAMGWYRQAPGKERELVAVINRGGNTYYADSVKGRFTISRDNAKNTVYLQMNSLKPEDTAVYYCAADYLRWAGRYFSWDYDYWGQGTQVTVSS,high polyreactivity
11,QVQLVESGGGLVQAGGSLRVSCAASGSIFGPYAMGLYRQAPGKERELVATSTYYADSVKGRFTISRDNAKNTVYLQMHRLKPEDTAVYYCAKTPYYSGYGWGYDYWGQGTQVTVSS,low polyreactivity
12,QVQLVESGGGLVQAGGSLRLRCAAYGSNFVLNAMGLDRKAPGKERELVAAISRGGASTYYADSVKGRFTIARDNSKNTVYLQMTSLKPEDTAVYYCNASGYGQGVVIYLVLYDYWGQGTQVTVSS,low polyreactivity
13,QVQLVESGGGLVQAGGSLRLSCAASGLIFATYAMRWYRQAPGKERELVADITTTGSTYYADSVKGRFTISRDNAKNTVYLQMNSLKPEDTAVYYCAAYGRWLTWYDFDYWGQGTQVTVSS,high polyreactivity
14,QVQLVESGGGLVQAGGSLRLSCAASGSILAYYARGWYRQAPGQERELVADIRAGGGNTYYADSVKGRFTISRDNAKNTVYLQMNSLKPEDTAVYYCNADWHFWYKWESYDYDYWGQGTQVTVSS,low polyreactivity
15,QVKLVESGGRLVQAGGSLRLSCAASGRNFYNYAMGWYRQAPGKERELVAAISKSGGRTYYADSVKGRFTISRDNAKNTVYLQMNSLKPEDTAVYYCAAEPFIPDQSRYYYWGQGSQVTVSS,high polyreactivity
16,QVQLVESRGGLVQAGGSLRLSCAASGRTFWYKAMGWYRQAPGKERELVAAISKSAAITYYADSVKGRFTISRDNAKNTVYLQMNSLKPEDTAVYYCNAGVRAVNRKYDYWGQGTQVTVSS,high polyreactivity
17,QVQLVESGGGLVQAGGSLRLSCAASGSILLYYTMGWYRQAPGKERELVASITSGGRTYYADSVKGRFTISRDNAKNTVYLQMNSLKPEDTAVYYCAADVWKLYDYWGQGTQVTVSS,low polyreactivity
18,QVQLVESVGGLVQAGGSLRLSCAASGYIFYGYAMGWYRQAPGKEREFVAAITVRGGSTYYADSVKGRFTISRDNAKNTVYLQMNSEKPEDTAVYYCAAAPQFTFGVGYWGQGTQVTVSS,low polyreactivity
19,QVQLVESGGGLVQAGGSLRLSCAASGNIFYSYAMGWYRQAPGNERELVAAISWGGGRTYYADSVKGRFTISRDNAKNTVYLQMNSLKPEDTAVYYCNKVTRGGYDYWGQGTQVTVSS,high polyreactivity
20,QVQLVESGGGLLQAGGSLRLSCAASGSIFGDNAMVWYRQAPWKERDLVATISSSDASTYYADSVKGRFTISRDNAKNTVNLQMNSLKPEDTAVYYCAKEVTAGYHVWYDYWGQGTQVTVSS,low polyreactivity
